Experimental data reported in US20250333467A1 (TECTONIC OPERATING, published 2025).
Changes are numbered by the printed parent chain.

T1: human RXFP1 (human, UniProt Q9HBX9 1-757)
T1 sequence (looked up): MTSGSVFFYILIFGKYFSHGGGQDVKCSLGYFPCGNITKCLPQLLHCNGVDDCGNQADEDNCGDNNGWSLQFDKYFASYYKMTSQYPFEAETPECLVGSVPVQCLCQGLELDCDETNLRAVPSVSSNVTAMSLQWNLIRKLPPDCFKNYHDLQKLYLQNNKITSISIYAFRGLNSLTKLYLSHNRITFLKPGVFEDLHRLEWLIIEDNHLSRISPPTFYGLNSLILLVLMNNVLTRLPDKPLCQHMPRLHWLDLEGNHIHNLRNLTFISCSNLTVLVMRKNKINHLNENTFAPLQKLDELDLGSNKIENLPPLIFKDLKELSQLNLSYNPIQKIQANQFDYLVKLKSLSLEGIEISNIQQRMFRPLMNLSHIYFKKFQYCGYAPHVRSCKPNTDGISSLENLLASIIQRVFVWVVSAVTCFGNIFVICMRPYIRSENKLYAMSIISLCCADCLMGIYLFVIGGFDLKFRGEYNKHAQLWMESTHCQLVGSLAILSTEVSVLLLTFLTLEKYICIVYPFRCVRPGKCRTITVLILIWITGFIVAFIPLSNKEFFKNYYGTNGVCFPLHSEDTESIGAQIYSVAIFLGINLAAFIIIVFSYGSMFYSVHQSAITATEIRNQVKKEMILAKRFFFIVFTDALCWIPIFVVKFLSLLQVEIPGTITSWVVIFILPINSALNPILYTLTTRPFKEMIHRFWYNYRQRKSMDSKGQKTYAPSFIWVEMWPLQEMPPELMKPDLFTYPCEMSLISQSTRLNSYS

B1: SEQ ID NO: 361 (Fc fusion)
chain: DKTHTCPPCPAPEAAGGPSVFLFPPKPKDTLMISRTPEVTCVVVDVSHEDPEVKFNWYVDGVEVHNAKTKPREEQYNSTYRVVSVLTVLHQDWLNGKEYKCKVSNKALAAPIEKTISKAKGQPREPQVYTLPPSRDELTKNQVSLTCLVKGFYPSDIAVEWESNGQPENNYKTTPPVLDSDGSFFLYSKLTVDKSRWQQGNVFSCSVLHEALHSHYTQKSLSLSPGKGGSDSWKEEVIKLCGRELVRAQIAICGKSTGGGEGGGEGGGEGRQLYSALANKCCHVGCTKRSLARFC
B2: SEQ ID NO: 326 (Fc fusion)
chain: B1 chain with K234Q, G260E, E261G, G262E, G267E, E269G, G270S, R293Q
B3: SEQ ID NO: 319 (Fc fusion)
chain: B1 chain with K234Q, G262E, E265G, G266E, G267E, E269G
B4: SEQ ID NO: 366 (Fc fusion)
chain: B1 chain with K234Q, G260E, E261G, G264E, R271G
B5: SEQ ID NO: 304 (Fc fusion)
chain: B1 chain with K234Q
B6: SEQ ID NO: 321 (Fc fusion)
chain: B1 chain with K234Q, G262E, E265G, G266E, G267E, E269G, R293Q
B7: SEQ ID NO: 363 (Fc fusion)
chain: B1 chain with K234M
B8: SEQ ID NO: 365 (Fc fusion)
chain: B1 chain with K234M, G260E, E261G, G264E, R271G
B9: SEQ ID NO: 368 (Fc fusion)
chain: DKTHTCPPCPAPEAAGGPSVFLFPPKPKDTLMISRTPEVTCVVVDVSHEDPEVKFNWYVDGVEVHNAKTKPREEQYNSTYRVVSVLTVLHQDWLNGKEYKCKVSNKALAAPIEKTISKAKGQPREPQVYTLPPSRDELTKNQVSLTCLVKGFYPSDIAVEWESNGQPENNYKTTPPVLDSDGSFFLYSKLTVDKSRWQQGNVFSCSVLHEALHSHYTQKSLSLSPGGGSDSWQEEVIKLCGRELVRAQIAICGKSTGGEGGGEEGGGEGGQLYSALANKCCHVGCTKRSLARFC
B10: SEQ ID NO: 315 (Fc fusion)
chain: B9 chain with E259G, G260E, E263G, G270R
B11: SEQ ID NO: 325 (Fc fusion)
chain: B9 chain with E259G, G260E, G261E, E263G, E264G, G265E, G266E, E268G, G270R, R292Q
B12: SEQ ID NO: 369 (Fc fusion)
chain: DKTHTCPPCPAPEAAGGPSVFLFPPKPKDTLMISRTPEVTCVVVDVSHEDPEVKFNWYVDGVEVHNAKTKPREEQYNSTYRVVSVLTVLHQDWLNGKEYKCKVSNKALAAPIEKTISKAKGQPREPQVYTLPPSRDELTKNQVSLTCLVKGFYPSDIAVEWESNGQPENNYKTTPPVLDSDGSFFLYSKLTVDKSRWQQGNVFSCSVLHEALHSHYTQKSLSLSPGKGGSDSWKEEVIKLCGRELVRAQIAICGKSTASDAAGANANAGARQLYSALANKCCHVGCTKRSLAQFC
B13: SEQ ID NO: 370 (Fc fusion)
chain: B12 chain with Q293E
B14: SEQ ID NO: 362 (Fc fusion)
chain: DKTHTCPPCPAPEAAGGPSVFLFPPKPKDTLMISRTPEVTCVVVDVSHEDPEVKFNWYVDGVEVHNAKTKPREEQYNSTYRVVSVLTVLHQDWLNGKEYKCKVSNKALAAPIEKTISKAKGQPREPQVYTLPPSRDELTKNQVSLTCLVKGFYPSDIAVEWESNGQPENNYKTTPPVLDSDGSFFLYSKLTVDKSRWQQGNVFSCSVLHEALHSHYTQKSLSLSPGKGGSDSWKEEVIKLCGRELVRAQIAICGKSTGGGEGGGEGGGEGGGQLYSALANKCCHVGCTKRSLARFC
B15: SEQ ID NO: 364 (Fc fusion)
chain: B14 chain with K234M
B16: SEQ ID NO: 307 (Fc fusion)
chain: B14 chain with K234Q

What follows are binders tested against T1, human RXFP1 (assay: cell-based or functional assay).

Going from B1 to B2, the “Potency (cAMP, transient hRXFP1 in HEK293)” value (shortened to “Potency”) rises from 2.5 nM to 18.9 nM (7.6-fold).

Compared with B3, B4 is 11-fold higher in “Potency” value: 5.8 nM for the first, 62.8 nM for the second.

First: B5
Second: B6
The “Potency” value of the first is 4.1-fold lower: 2.5 nM for the first, 10.2 nM for the second.

First: B7
Second: B8
The “Potency” value of the first is 21-fold lower: 2.9 nM for the first, 60.3 nM for the second.

First: B9
Second: B10
The “Potency” value of the first is 31-fold higher: 101 nM for the first, 3.3 nM for the second.

Going from B11 to B12, the “Potency” value falls from 23.4 nM to 0.5 nM (47-fold).

First: B13
Second: B14
The “Potency” value of the first is 6.8-fold lower: 1.8 nM for the first, 12.3 nM for the second.

B15 and B16 are within 1.5-fold of each other in “Potency” value: 16 nM for the first, 15.8 nM for the second.
